Measured values as given in patent publication US20220010004A1 (published 2022).

T1: tau peptide 301-330 (human)
T1 construct: Synthetic; Built from 2N4R numbering
T1 peptide: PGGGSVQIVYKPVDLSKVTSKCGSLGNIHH

T2: tau peptide 270-300 (human)
T2 construct: Synthetic; Built from 2N4R numbering
T2 peptide: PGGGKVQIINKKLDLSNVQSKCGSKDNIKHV

T3: tau peptide 240-270 (human)
T3 construct: Synthetic; Built from 2N4R numbering
T3 peptide: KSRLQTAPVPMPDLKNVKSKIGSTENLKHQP

B1: monoclonal antibody DC8E8 (antibody, mouse IgG1, V domains shown)
VH: QVQLQQSGPELVKPGTSVKMPCKASGYIFTDYVISWVKQRTGQGLEWIGEIFPRSGSTYYNEKFKGKATLTADKSSNTAYMQLSSVTSEDSAVYFCARDYYGTSFAMDYWGQGTSVTVSS
VL: DIVMSQSPSSLAVSAGEKVTMSCKSSQSLLNSRTRKNYLAWYQQKPGQSPKLLIYWASTRESGVPDRFTGSGSGTDFTLTISSVQAEDLAVYYCKQSFYLRTFGGGTKLDIK
notes: Mouse IgG1 with kappa light chain, from hybridoma ATCC PTA-11994; also called mAb DC8E8
B2: peptide NIKAVPGGGS (peptide)
peptide: NIKAVPGGGS
notes: Tau-derived peptide with histidine 299 changed to alanine

Assays:
[1] = target: B1; assay: competition ELISA; competitor: coated tauΔ(1-150;392-441)/4R
[2] = target: T1, tau peptide 301-330; assay: ELISA, coated peptide (5 µg/ml), hybridoma supernate
Description: (§1) Microtiter plates were coated overnight at 37° C. with either recombinant tau proteins or with tau peptides (5 μg/ml in PBS, 50 μl/well). […] Bound monoclonal antibody was detected with sheep anti-mouse Ig HRP-conjugated (DAKO). The reaction was developed with orthophenylenediamine Solution as a peroxidase substrate and stopped with 50 μl of 2 M H₂SO₄. Absorbance was measured at 492 nm using a Multiscan MCC/340 ELISA reader (Labsystems). Readouts with an absorbance value of at least twice the value of the negative controls (PBS) were considered positive.

[3] = target: T2, tau peptide 270-300; assay: as above
Description: as §1

[4] = target: T3, tau peptide 240-270; assay: as above
Description: as §1

[5] = target: T4, tauΔ(1-150; 392-441)/4R (human, UniProt P10636 468-708); assay: SPR (Biacore), DC8E8 captured, tau injected
T4 construct: Also the transgene of SHR72 rats; also called tau 151-391/4R; misdisordered tau
Description: (§2) A BIACORE3000 instrument with a CMS sensor chip (Biacore AB, Uppsala) was used for the SPR assays. Amine-coupling reagents (EDC, NHS, ethanolamine pH 8.5), P20 detergent, and 10 mM sodium acetate pH 5.0 were obtained from Biacore AB. These experiments were done at 25° C. in PBS pH 7.4 with 0.005% of P20 (PBS-P) as the running buffer.
(§3) Kinetic rate constants were approximated globally, maximal responses were fitted locally, and the bulk response was set to zero.

[6] = target: T5, human full-length tau isoform 2N4R (human, UniProt P10636 1-758); assay: SPR (Biacore), DC8E8 captured, tau injected
T5 construct: Recombinant, E. coli; also called tau 2N4R; tau441
Description: as §2, §3

[7] = target: tauΔ137-441 (human, UniProt P10636 1-387); assay: ELISA, coated tau (5 µg/ml), hybridoma supernate
Description: as §1

[8] = target: tauΔ300-312 (human, UniProt P10636 1-758); assay: ELISA, coated tau (5 µg/ml), hybridoma supernate
Description: as §1

[9] = target: tauΔ306-400 (human, UniProt P10636 1-758); assay: ELISA, coated tau (5 µg/ml), hybridoma supernate
Description: as §1

[10] = target: T6, tauΔ228-441 (human, UniProt P10636 1-544); assay: ELISA, coated tau (5 µg/ml), hybridoma supernate
T6 construct: also called C-terminally truncated tau protein
Description: as §1

[11] = target: tauΔ283-441 (human, UniProt P10636 1-599); assay: ELISA, coated tau (5 µg/ml), hybridoma supernate
Description: as §1

[12] = target: tauΔ222-427 (human, UniProt P10636 1-758); assay: ELISA, coated tau (5 µg/ml), hybridoma supernate
Description: as §1

[13] = target: tauΔ257-400 (human, UniProt P10636 1-758); assay: ELISA, coated tau (5 µg/ml), hybridoma supernate
Description: as §1

[14] = target: B1; assay: competition ELISA against coated tauΔ(1-150;392-441)/4R

Sequence of tauΔ306-400 (P10636 other isoform, or with tags, fused parts or gaps mutant): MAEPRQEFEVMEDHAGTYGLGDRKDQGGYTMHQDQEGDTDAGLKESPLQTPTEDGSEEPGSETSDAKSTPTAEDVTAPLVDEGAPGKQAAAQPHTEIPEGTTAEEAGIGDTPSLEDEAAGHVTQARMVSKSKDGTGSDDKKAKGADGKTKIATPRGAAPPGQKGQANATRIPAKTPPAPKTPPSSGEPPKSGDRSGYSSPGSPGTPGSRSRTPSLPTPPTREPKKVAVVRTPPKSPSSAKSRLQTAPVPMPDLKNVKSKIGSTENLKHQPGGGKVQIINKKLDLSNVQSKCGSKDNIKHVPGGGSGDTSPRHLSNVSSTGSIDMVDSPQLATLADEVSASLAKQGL
T4 sequence (P10636 other isoform, or with tags, fused parts or gaps mutant limits assumed): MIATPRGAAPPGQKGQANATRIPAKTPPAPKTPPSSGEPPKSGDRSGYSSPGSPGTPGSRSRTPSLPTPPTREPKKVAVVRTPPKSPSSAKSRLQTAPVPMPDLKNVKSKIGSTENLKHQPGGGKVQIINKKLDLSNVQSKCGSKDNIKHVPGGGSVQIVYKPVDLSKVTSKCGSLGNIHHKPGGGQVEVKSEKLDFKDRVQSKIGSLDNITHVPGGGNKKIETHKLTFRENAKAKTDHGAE
T6 sequence (P10636 other isoform, or with tags, fused parts or gaps mutant): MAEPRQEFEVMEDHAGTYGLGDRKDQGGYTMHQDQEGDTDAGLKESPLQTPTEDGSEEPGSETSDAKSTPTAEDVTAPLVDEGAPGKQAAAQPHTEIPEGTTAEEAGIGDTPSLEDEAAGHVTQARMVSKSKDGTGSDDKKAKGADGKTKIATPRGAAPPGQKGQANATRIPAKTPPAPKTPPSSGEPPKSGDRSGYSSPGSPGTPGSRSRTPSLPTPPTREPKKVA
Sequence of tauΔ137-441 (P10636 other isoform, or with tags, fused parts or gaps mutant): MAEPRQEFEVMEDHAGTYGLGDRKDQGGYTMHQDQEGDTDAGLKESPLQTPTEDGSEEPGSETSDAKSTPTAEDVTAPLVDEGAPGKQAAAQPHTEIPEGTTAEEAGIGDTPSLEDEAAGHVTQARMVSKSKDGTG
T5 sequence (P10636 other isoform, or with tags, fused parts or gaps limits assumed): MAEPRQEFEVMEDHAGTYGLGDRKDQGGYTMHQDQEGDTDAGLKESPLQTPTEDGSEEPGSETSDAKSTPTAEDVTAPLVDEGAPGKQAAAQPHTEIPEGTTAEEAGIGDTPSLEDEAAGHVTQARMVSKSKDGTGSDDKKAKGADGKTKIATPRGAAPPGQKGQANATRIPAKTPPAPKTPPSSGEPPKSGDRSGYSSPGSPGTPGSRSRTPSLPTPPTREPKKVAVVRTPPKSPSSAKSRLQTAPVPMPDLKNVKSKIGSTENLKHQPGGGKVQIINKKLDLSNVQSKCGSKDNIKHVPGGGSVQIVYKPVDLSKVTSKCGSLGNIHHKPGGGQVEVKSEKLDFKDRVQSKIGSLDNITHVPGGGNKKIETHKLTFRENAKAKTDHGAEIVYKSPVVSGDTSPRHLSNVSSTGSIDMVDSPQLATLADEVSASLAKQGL
Sequence of tauΔ300-312 (P10636 other isoform, or with tags, fused parts or gaps mutant): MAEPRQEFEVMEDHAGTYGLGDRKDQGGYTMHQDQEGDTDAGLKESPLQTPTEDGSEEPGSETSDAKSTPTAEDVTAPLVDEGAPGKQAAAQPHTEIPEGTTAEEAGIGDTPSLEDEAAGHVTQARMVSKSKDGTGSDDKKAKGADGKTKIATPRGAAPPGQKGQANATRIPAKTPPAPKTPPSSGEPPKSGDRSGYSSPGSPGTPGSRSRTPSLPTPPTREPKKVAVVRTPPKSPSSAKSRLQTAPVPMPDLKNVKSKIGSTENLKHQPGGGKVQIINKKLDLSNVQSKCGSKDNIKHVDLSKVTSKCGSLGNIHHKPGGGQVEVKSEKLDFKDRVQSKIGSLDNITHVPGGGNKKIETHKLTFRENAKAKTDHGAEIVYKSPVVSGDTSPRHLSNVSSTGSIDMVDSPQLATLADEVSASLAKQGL
Sequence of tauΔ283-441 (P10636 other isoform, or with tags, fused parts or gaps mutant): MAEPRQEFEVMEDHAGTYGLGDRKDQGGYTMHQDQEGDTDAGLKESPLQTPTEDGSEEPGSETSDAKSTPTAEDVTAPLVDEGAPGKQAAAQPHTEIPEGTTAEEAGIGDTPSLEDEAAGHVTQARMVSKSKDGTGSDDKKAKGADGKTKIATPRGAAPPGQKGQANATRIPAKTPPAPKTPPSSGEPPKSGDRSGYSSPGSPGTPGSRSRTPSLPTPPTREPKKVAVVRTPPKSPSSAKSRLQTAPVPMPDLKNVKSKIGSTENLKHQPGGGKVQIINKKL
Sequence of tauΔ222-427 (P10636 other isoform, or with tags, fused parts or gaps mutant): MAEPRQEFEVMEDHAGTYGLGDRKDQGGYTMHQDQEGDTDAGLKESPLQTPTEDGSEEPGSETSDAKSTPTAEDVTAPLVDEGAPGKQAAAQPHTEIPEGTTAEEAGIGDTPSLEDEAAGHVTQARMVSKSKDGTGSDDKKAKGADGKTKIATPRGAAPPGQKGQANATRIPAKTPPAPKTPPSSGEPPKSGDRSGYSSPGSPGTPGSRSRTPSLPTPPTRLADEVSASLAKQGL
Sequence of tauΔ257-400 (P10636 other isoform, or with tags, fused parts or gaps mutant): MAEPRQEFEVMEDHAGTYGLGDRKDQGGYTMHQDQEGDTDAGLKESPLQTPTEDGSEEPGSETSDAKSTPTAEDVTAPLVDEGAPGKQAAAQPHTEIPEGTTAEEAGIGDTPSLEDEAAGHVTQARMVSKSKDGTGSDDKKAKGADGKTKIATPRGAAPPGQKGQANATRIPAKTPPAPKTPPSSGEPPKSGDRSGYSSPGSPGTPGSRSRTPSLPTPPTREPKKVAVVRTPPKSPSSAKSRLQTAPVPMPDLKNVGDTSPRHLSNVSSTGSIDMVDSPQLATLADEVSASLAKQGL

Binder	binding result [1]	further results
IKHVPGGGS [peptide IKHVPGGGS]	binds	–
B1	–	binding result [2]: no binding; binding result [3]: no binding; binding result [4]: no binding; fold lower kOFF of four-repeat tau species [5]: 10 fold; fold lower kOFF of four-repeat tau species [6]: 10 fold; binding result [7]: no binding; binding result [8]: no binding; binding result [9]: no binding; binding result [10]: no binding; binding result [11]: no binding; binding result [12]: no binding; binding result [13]: no binding
DNAKHVPGGGS (Alanine mutant of tau 295-305) [peptide DNAKHVPGGGS]	binds	–
HVPGGGSVQ [peptide HVPGGGSVQ]	binds	–
QPGGG [tau peptide QPGGG]	–	binding result [14]: no binding
VPGGG [tau peptide VPGGG]	–	binding result [14]: no binding
DNIKHVPGGGSVQIVYKPV (also called 19-mer) [tau peptide DNIKHVPGGGSVQIVYKPV]	binds	–
ENLKHQPGGGKVQIINKKLDLSNVQSKCGSKDNIKHVPGGGS (also called 42-mer) [tau peptide ENLKHQPGGGKVQIINKKLDLSNVQSKCGSKDNIKHVPGGGS]	binds	–
ANIKHVPGGGS (Alanine mutant of tau 295-305) [peptide ANIKHVPGGGS]	binds	–
DNIAHVPGGGS (Alanine mutant of tau 295-305) [peptide DNIAHVPGGGS]	binds	–
TENLKHQPGGGK [tau peptide TENLKHQPGGGK]	binds	–
SVFQHLPGGGSC (Designed peptide) [designer therapeutic epitope 2 SVFQHLPGGGSC]	–	affinity for DC8E8 relative to tauΔ(1-150; 392-441)4R [1]: > 10 fold
DNIKAVPGGGS (Alanine mutant (H299A) of tau 295-305) [peptide DNIKAVPGGGS]	–	binding result [14]: no binding (tested: 160 µM)
HQPGGG [tau peptide HQPGGG]	binds	–
HKPGGG [tau peptide HKPGGG]	binds	–
HVPGGG [tau peptide HVPGGG]	binds	–
KHVPGGGSV [peptide KHVPGGGSV]	binds	–
HQPGG [tau peptide HQPGG]	–	binding result [14]: no binding
HVPGG [tau peptide HVPGG]	–	binding result [14]: no binding
NIKHVPGGGS [peptide NIKHVPGGGS]	binds	–
B2	–	binding result [14]: no binding (tested: 40 µM)
KHVPGGG [tau peptide KHVPGGG]	binds	–
KHQPGGG [tau peptide KHQPGGG]	binds	–
THVPGGG [tau peptide THVPGGG]	binds	–
GWSIHSPGGGSC (Designed peptide) [designer therapeutic epitope 1 GWSIHSPGGGSC]	binds	–
DNIKHAPGGGS (Alanine mutant of tau 295-305) [peptide DNIKHAPGGGS]	binds	–
HHKPGGG [tau peptide HHKPGGG]	binds	–
DAIKHVPGGGS (Alanine mutant of tau 295-305) [peptide DAIKHVPGGGS]	binds	–
